In PMC3097154, “Antiviral activity of α-helical stapled peptides designed from the HIV-1 capsid dimerization domain” (Retrovirology, 2011):
Like-named read-outs stand apart in the source and are kept apart here.

Assays:
[1] = target: C-terminal domain (CTD) of HIV-1 capsid (CA), wild type (HIV-1 (strain NL4-3)); experiment: ITC; dilution of CTD (ca. 250 uM) into buffer with 350 uM NYAD-203; 25 mM sodium phosphate pH 7.3, 30 C; apparent; dimer to monomers
[2] = target: C-terminal domain (CTD) of HIV-1 capsid (CA), wild type (HIV-1 (strain NL4-3)); experiment: ITC; dilution of CTD (ca. 250 uM) into buffer with 200 uM NYAD-203; 25 mM sodium phosphate pH 7.3, 30 C; apparent; dimer to monomers
[3] = target: C-terminal domain (CTD) of HIV-1 capsid (CA), wild type (HIV-1 (strain NL4-3)); experiment: ITC; dilution of CTD (ca. 250 uM) into buffer with 50 uM NYAD-203; 25 mM sodium phosphate pH 7.3, 30 C; apparent; dimer to monomers
[4] = target: C-terminal domain (CTD) of HIV-1 capsid (CA), wild type (HIV-1 (strain NL4-3)); experiment: ITC; dilution of CTD (ca. 250 uM in the syringe, 10 ul injections) into buffer without peptide; 25 mM sodium phosphate pH 7.3, 30 C; dimer to monomers
[5] = target: HIV-1 capsid CTD CTD (Human immunodeficiency virus 1) (UniProt O93182); conditions: cited from earlier work
[6] = target: HIV-1 capsid CA (Human immunodeficiency virus 1) (UniProt O93182); conditions: cited from earlier work
[7] = target: C-terminal domain (CTD) of HIV-1 capsid (CA), wild type (HIV-1 (strain NL4-3)); experiment: NMR titration
[8] = target: C-terminal domain (CTD) of HIV-1 capsid (CA), wild type (HIV-1 (strain NL4-3)); experiment: ITC; Ki worked out from the rise of the apparent dimer dissociation constant of CTD with the NYAD-203 concentration, extrapolated to low (zero) peptide concentration; pH 7.3, 30 C
[9] = target: C-terminal domain (CTD) of HIV-1 capsid (CA), wild type (HIV-1 (strain NL4-3)); experiment: as above; remark: listed apart in the source

HIV-1 capsid CA, sequence (O93182 133-363): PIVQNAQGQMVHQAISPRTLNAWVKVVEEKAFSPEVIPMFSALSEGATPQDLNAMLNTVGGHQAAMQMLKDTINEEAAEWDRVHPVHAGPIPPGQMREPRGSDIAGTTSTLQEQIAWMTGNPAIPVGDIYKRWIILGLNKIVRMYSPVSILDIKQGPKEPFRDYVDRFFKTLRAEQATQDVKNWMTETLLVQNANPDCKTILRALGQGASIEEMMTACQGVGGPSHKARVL
HIV-1 capsid CTD CTD (Human immunodeficiency virus 1), sequence (O93182 278-363): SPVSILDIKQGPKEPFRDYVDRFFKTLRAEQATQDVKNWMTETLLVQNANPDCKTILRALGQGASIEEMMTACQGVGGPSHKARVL
CAC1 peptide, sequence (O93182 307-326): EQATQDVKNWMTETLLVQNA

In the case of “C-terminal domain (CTD) of HIV-1 capsid (CA), wild type (domain or fragment)”, the apparent K diss with 350 uM NYAD-203 [1] is reported as 40.5 µM, the apparent dH of dimer dissociation with 350 uM NYAD-203 [1] is reported as 10.9 kcal/mol and the apparent K diss with 200 uM NYAD-203 [2] is reported as 33.2 µM. The apparent dH of dimer dissociation with 200 uM NYAD-203 [2] was 10.8 kcal/mol, the apparent K diss with 50 uM NYAD-203 [3] was 31.2 µM and the apparent dH of dimer dissociation with 50 uM NYAD-203 [3] was 9.1 kcal/mol. The Kd [4] was 15.3 µM and the dH of dimer dissociation [4] was 10.7 kcal/mol.

In the case of CAC1 peptide (from UniProt O93182), the Kd [5] is given as 50 µM.

For HIV-1 capsid CA (from UniProt O93182), the Kd [6] is given as 18 µM.

With “NYAD-203, hydrocarbon-stapled dimer interface peptide, soluble analog of NYAD-201” the Kd [7] was under 10 µM, the Ki [8] was 45 µM and the Ki [9] was 40 µM.
